Assay results: article PMC12056017

T1: CD80 fused to intracellular monomeric Cherry (mCherry), P33681
T1 chain: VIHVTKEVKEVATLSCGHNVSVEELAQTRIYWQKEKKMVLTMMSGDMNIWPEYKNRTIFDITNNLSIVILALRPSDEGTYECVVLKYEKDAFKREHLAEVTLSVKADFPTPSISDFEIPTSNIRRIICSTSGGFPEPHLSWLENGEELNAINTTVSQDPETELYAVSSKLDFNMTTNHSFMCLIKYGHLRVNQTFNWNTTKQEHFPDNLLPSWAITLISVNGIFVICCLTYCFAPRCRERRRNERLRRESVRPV


Assays:
[1] = target: PD-1 ligand (PD-L1) fused to an intracellular monomeric green fluorescent protein (mGFP), Q9NZQ7; assay: DNA-PAINT super-resolution microscopy with nearest-neighbour analysis (SPINNA); CHO cells co-expressing CD80-mCherry and PD-L1-mEGFP, fixed with 4% PFA; labelled with anti-mCherry and anti-GFP nanobodies; two-round Exchange-PAINT, ~3 nm localization precision; model of monomers, homodimers …; details: other: DNA-PAINT super-resolution microscopy with nearest-neighbour analysis (SPINNA)
[2] = target: T1, CD80 fused to intracellular monomeric …; assay: DNA-PAINT super-resolution microscopy with nearest-neighbour analysis (SPINNA); CHO cells co-expressing CD80-mCherry and PD-L1-mEGFP, fixed with 4% PFA; labelled with anti-mCherry and anti-GFP nanobodies; two-round Exchange-PAINT, ~3 nm localization precision; model of monomers, homodimers and heterodimers fitted to nearest-neighbour distances with density masks; 3 cells; details: remark: other sources report otherwise
[3] = target: T1, CD80 fused to intracellular monomeric …; assay: as above; details: remark: other sources report otherwise

Chain of PD-1 ligand (PD-L1) fused to an intracellular monomeric green fluorescent protein (mGFP), Q9NZQ7 (Q9NZQ7 19-290): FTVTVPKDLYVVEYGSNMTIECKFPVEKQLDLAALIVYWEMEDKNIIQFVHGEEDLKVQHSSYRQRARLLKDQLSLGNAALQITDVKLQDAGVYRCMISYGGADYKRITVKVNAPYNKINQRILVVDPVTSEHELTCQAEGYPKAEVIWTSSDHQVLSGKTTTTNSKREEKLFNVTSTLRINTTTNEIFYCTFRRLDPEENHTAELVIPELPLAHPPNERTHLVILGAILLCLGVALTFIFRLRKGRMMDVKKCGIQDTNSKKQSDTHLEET

Binder | percent of all molecules in heterodimers [1] | percent of all molecules in homodimers [2] [%] | percent of all molecules in homodimers [3] [%]
CD80 fused to intracellular monomeric Cherry (mCherry) (protein) VIHVTKEVKEVATLSCGHNVSVEELAQTRIYWQKEKKMVLTMMSGDMNIWPEYKNRTIFDITNNLSIVILALRPSDEGTYECVVLKYEKDAFKREHLAEVTLSVKADFPTPSISDFEIPTSNIRRIICSTSGGFPEPHLSWLENGEELNAINTTVSQDPETELYAVSSKLDFNMTTNHSFMCLIKYGHLRVNQTFNWNTTKQEHFPDNLLPSWAITLISVNGIFVICCLTYCFAPRCRERRRNERLRRESVRPV | PD-L1 and CD80 heterodimers (27 ± 5) % | – | –
CD80 fused to intracellular monomeric Cherry (mCherry), P33681 35-288 (ligand) VIHVTKEVKEVATLSCGHNVSVEELAQTRIYWQKEKKMVLTMMSGDMNIWPEYKNRTIFDITNNLSIVILALRPSDEGTYECVVLKYEKDAFKREHLAEVTLSVKADFPTPSISDFEIPTSNIRRIICSTSGGFPEPHLSWLENGEELNAINTTVSQDPETELYAVSSKLDFNMTTNHSFMCLIKYGHLRVNQTFNWNTTKQEHFPDNLLPSWAITLISVNGIFVICCLTYCFAPRCRERRRNERLRRESVRPV | – | 11 | 9
